# Source: article PMC11910330, “Familial Alzheimer’s disease mutations in amyloid precursor protein impair calcineurin signaling to NMDA receptors” (The Journal of Biological Chemistry, 2024)
# Molecular target: recombinant GST-tagged CaN A subunit, Q08209
# Test: in vitro peptide pull-down (biotinylated peptide, immunoblot quantification)
# Conditions: chain shown with the change; recombinant GST-CaN (200 ng); parent: est. 47; read off a plot
row,Binder,response (% CaN input recovered)
1,MAGPHTVFVITGPHEE [APP peptide (APP core CaN-binding sequence in the PVIVIT peptide) I641F],23
2,MAGPHTVIVIPGPHEE [APP peptide (APP core CaN-binding sequence in the PVIVIT peptide) T644P],5
3,MAGPHTVIFITGPHEE [APP peptide (APP core CaN-binding sequence in the PVIVIT peptide) V642F],44
4,MAGPHTVIIITGPHEE [APP peptide (APP core CaN-binding sequence in the PVIVIT peptide) V642I],44
5,MAGPHTMIVITGPHEE [APP peptide (APP core CaN-binding sequence in the PVIVIT peptide) V640M],43
6,MAGPHIVIVITGPHEE [APP peptide (APP core CaN-binding sequence in the PVIVIT peptide) T639I],54
